According to patent US20220112558:

Biological target: 14-3-3 proteins

B1: ARAF mutant (ARAF-S214P), full-length, with two FLAG tags and two STREP tags, expressed in HEK293T cells (protein)
chain: DYKDDDDKDYKDDDDKWSHPQFEKWSHPQFEKMEPPRGPPANGAEPSRAVGTVKVYLPNKQRTVVTVRDGMSVYDSLDKALKVRGLNQDCCVVYRLIKGRKTVTAWDTAIAPLDGEELIVEVLEDVPLTMHNFVRKTFFSLAFCDFCLKFLFHGFRCQTCGYKFHQHCSSKVPTVCVDMSTNRQQFYHSVQDLSGGSRQHEAPSNRPLNELLTPQGPSPRTQHCDPEHFPFPAPANAPLQRIRSTPTPNVHMVSTTAPMDSNLIQLTGQSFSTDAAGSRGGSDGTPRGSPSPASVSSGRKSPHSKSPAEQRERKSLADDKKKVKNLGYRDSGYYWEVPPSEVQLLKRIGTGSFGTVFRGRWHGDVAVKVLKVSQPTAEQAQAFKNEMQVLRKTRHVNILLFMGFMTRPGFAIITQWCEGSSLYHHLHVADTRFDMVQLIDVARQTAQGMDYLHAKNIIHRDLKSNNIFLHEGLTVKIGDFGLATVKTRWSGAQPLEQPSGSVLWMAAEVIRMQDPNPYSFQSDVYAYGVVLYELMTGSLPYSHIGCRDQIIFMVGRGYLSPDLSKISSNCPKAMRRLLSDCLKFQREERPLFPQILATIELLQRSLPKIERSASEPSLHRTQADELPACLLSAARLVP
activation of ERK1/2, as measured by increased phosphorylation: significantly greater activation of ERK1/2, as measured by increased phosphorylation, compared with HEK293T cells expressing wildtype (WT) ARAF
